Laboratory results published in patent US20160108087A1 (ROYAL INSTITUTION FOR THE ADVANCEMENT OF LEARNING MCGILL …, published 2016).

B1: TAT-VDAC1 fusion peptide S35 (TVS35) (peptide)
peptide: YGRKKRRQRRRGKLDLKTKSENGLE
notes: also called TAT-VDAC1 Ser35
B2: TAT-VDAC1 Gly35 (TVG35) (peptide)
peptide: YGRKKRRQRRRGKLDLKTKGENGLE
notes: also called TVS35G
B3: TAT-VDAC1 fusion peptide S167 (TVS167) (peptide)
peptide: YGRKKRRQRRRGSKSRVTQSNFAVG
notes: A FAM-labelled form was used only to show cell penetration; also called TAT-VDAC1 Ser167; TV167
B4: TAT-VDAC1 Gly167 (TVG167) (peptide)
peptide: YGRKKRRQRRRGSKSRVTQGNFAVG
notes: also called TVS167G
B5: 14-3-3ε protein (mouse, endogenous in MA-10 mouse Leydig tumor cells) (other, UniProt P62259 1-255, looked up)
chain: MDDREDLVYQAKLAEQAERYDEMVESMKKVAGMDVELTVEERNLLSVAYKNVIGARRASWRIISSIEQKEENKGGEDKLKMIREYRQMVETELKLICCDILDVLDKHLIPAANTGESKVFYYKMKGDYHRYLAEFATGNDRKEAAENSLVAYKAASDIAMTELPPTHPIRLGLALNFSVFYYEILNSPDRACRLAKAAFDDAIAELDTLSEESYKDSTLIMQLLRDNLTLWTSDMQGDGEEQNKEALQDVEDENQ
notes: whole, on cells; Endogenous intracellular protein, detected in fixed cells (Duolink) or cell lysates (co-IP); also called YWHAE gene product; mitochondrial import stimulating factor
B6: 14-3-3ε protein (rat, endogenous in testes sections of Sprague-Dawley rats) (other, UniProt P62260 1-255, looked up)
chain: B5 chain
notes: whole, on cells; Endogenous protein in tissue sections
B7: 14-3-3ε protein (human, endogenous in NCL-H295R adrenocortical cells) (other, UniProt P62258 1-255, looked up)
chain: B5 chain
notes: whole, on cells; Endogenous protein

Assays:
[1] = biological target: B5; test: Duolink in cell IP in MA-10 cells, competition with endogenous VDAC1, 250 nM peptide
[2] = biological target: T1, translocator protein (TSPO), mouse, endogenous in MA-10 cells (mouse, UniProt P50637 1-169); test: Duolink in cell IP in MA-10 cells, signal/cell ratio, with TVS167 and 8-Br-cAMP (120 min)
T1 construct: whole, on cells; Endogenous outer mitochondrial membrane protein
T1 sequence (P50637 whole entry): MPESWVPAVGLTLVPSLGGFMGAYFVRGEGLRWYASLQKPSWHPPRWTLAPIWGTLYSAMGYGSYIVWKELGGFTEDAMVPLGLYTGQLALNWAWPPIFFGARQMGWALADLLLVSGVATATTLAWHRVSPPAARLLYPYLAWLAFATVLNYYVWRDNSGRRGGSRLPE

[3] = biological target: T2, VDAC1 protein (mouse, endogenous in MA-10 cells) (mouse, UniProt Q60932 14-296); test: Duolink in cell IP in MA-10 cells (figure legend)
T2 construct: Endogenous protein of the outer mitochondrial membrane in MA-10 cells; also called voltage-dependent anion-selective channel protein 1; mVDAC1
T2 sequence (Q60932 14-296): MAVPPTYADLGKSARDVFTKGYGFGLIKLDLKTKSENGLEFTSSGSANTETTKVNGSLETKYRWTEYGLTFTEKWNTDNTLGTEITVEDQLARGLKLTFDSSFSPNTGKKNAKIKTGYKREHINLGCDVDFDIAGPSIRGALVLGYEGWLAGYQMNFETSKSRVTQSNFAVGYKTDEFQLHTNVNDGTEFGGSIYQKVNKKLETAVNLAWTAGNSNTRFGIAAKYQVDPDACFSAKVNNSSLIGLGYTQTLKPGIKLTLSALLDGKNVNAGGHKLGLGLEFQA

[4] = biological target: T3, VDAC1 protein (rat, endogenous in testes sections of Sprague-Dawley rats) (rat, UniProt Q9Z2L0 1-283); test: Duolink assay on rat testes sections (figure legend)
T3 construct: Endogenous protein in tissue sections
T3 sequence (Q9Z2L0 whole entry): as the sequence (Q60932 14-296) above

[5] = biological target: T4, VDAC1 protein (human, endogenous in NCL-H295R adrenocortical cells) (human, UniProt P21796 2-283); test: Duolink assay in human adrenocortical cell line (figure legend)
T4 construct: Endogenous protein
T4 sequence (P21796 2-283 limits assumed, stated change not applied): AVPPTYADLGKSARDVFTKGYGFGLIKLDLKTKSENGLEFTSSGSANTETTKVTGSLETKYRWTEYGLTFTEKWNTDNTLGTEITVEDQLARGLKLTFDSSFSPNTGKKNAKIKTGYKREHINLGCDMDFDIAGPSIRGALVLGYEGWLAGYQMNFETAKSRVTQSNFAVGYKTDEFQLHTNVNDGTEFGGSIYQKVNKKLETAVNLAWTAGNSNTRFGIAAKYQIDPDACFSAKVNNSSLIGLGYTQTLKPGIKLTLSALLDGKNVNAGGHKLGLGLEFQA

Row | Binder | binding result [1] | also measured
1 | B1 | binds | 
2 | B2 | binds | 
3 | B3 | binds | 
4 | B4 | binds | 
5 | B5 |  | fold increase of interactions in the presence of TVS167 against untreated control [2]: 1.6 fold; binding result [3]: binds
6 | B6 |  | binding result [4]: binds
7 | B7 |  | binding result [5]: binds
